Laboratory results from PMC4750992, “A New Mutation, hap1-2, Reveals a C Terminal Domain Function in AtMago Protein and Its Biological Effects in Male Gametophyte Development in Arabidopsis thaliana” (PLoS ONE, 2016).

Target: T1, His-AteIF4AIII (Arabidopsis thaliana, UniProt Q94A52 1-408)
T1 construct: AteIF4AIII, Arabidopsis thaliana; cDNA amplified from qrt cDNAs with primers AteIF4AIIIFNdeI and AteIF4AIIIRSalI; Vector pET16b; also called His-eIF4AIII; source: E. coli BL21 (DE3) (pET16b), purified and eluted with ProBond beads
Assay: pull-down; MBP, MBP-AtMago or MBP-AtMagoΔC kept on amylose beads; purified His-Y14 or His-eIF4AIII diluted in Column Buffer (200 mM NaCl, 1 mM EDTA, 20 mM Tris-HCl, pH 7.4), 300 μL, on ice 1 hour; three washes; Western blot with anti-His or anti-MBP
Settings: both partners purified

T1 sequence (Q94A52 whole entry): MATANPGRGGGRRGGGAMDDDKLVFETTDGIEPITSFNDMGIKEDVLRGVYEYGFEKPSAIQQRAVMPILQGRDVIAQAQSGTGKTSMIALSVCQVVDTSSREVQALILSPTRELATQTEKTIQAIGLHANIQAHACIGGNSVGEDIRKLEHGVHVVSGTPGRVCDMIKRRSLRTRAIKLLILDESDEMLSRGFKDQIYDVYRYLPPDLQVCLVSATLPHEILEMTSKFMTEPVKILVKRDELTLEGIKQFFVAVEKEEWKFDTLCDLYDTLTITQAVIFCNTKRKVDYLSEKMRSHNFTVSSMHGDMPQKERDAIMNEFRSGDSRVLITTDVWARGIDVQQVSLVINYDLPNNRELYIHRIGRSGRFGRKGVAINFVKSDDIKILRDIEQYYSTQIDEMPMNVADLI

- binding result: binds
B1: MBP-AtMago (natural protein, Arabidopsis thaliana, UniProt O23676 1-150, looked up)
chain: MAAEEATEFYLRYYVGHKGKFGHEFLEFEFREDGKLRYANNSNYKNDTIIRKEVFLTPAVLKECKRIVSESEILKEDDNNWPEPDRVGKQELEIVLGNEHISFATSKIGSLVDCQSSNDPEGLRIFYYLVQDLKCLVFSLISLHFKIKPI
notes: AtMago (HAP1), Arabidopsis thaliana, full length protein of 150 amino acids; cDNA amplified from qrt;HAP1/hap1-2 cDNAs; Cloned BamHI/HindIII into pMAL-c2; also called HAP1; HAPLESS1
